# Test results: patent US20220380471A1 (US Dept. of Health and Human Services, published 2022)
# T1: B7H3-hFc (human, UniProt Q5ZPR3 29-456)
# T1 construct: also called recombinant B7H3-hFc; B7H3 ECD fused with human IgG1 Fc; not shown: human IgG1 Fc
# T1 sequence: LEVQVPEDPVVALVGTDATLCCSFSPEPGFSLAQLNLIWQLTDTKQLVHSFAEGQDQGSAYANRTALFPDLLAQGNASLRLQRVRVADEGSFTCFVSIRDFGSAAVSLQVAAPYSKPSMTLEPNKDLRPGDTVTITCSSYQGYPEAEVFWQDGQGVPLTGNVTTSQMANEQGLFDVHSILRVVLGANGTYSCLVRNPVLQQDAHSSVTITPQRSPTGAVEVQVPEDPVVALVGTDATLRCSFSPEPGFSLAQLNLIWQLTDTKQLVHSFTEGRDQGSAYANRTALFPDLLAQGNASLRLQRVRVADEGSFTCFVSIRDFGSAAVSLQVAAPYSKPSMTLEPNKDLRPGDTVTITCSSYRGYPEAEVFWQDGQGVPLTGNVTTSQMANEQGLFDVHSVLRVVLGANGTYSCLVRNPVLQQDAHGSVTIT
# T2: hB7H3-His (human, UniProt Q5ZPR3 29-461, limits assumed)
# T2 construct: not shown: His tag
# T2 sequence (looked up): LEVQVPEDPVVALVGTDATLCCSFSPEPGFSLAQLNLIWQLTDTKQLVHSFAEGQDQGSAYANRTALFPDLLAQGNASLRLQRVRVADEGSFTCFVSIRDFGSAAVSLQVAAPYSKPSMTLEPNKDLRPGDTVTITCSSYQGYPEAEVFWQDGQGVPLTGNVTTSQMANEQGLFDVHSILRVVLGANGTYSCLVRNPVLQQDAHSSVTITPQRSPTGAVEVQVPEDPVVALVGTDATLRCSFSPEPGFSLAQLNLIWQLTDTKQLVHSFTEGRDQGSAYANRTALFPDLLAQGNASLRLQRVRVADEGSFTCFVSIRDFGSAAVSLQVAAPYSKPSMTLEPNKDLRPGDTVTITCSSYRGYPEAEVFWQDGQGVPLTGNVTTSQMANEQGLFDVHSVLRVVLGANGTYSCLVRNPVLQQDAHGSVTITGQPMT
# T3: monkey B7H3-His (monkey)
# T3 chain: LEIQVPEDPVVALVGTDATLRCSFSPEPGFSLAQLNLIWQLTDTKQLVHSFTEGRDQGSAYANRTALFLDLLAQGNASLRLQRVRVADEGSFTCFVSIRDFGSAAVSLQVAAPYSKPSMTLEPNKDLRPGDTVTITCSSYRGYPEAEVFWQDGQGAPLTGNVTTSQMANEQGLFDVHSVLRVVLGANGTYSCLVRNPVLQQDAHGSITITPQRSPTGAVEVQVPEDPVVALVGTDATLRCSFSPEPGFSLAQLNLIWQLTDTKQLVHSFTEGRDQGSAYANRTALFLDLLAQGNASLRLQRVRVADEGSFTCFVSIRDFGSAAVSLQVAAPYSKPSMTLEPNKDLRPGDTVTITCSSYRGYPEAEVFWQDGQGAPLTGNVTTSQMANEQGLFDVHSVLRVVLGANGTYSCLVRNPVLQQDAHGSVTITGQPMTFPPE
# T4: rat B7H3-His (rat, UniProt Q7TPB4 29-244, limits assumed)
# T4 construct: not shown: His tag
# T4 sequence (looked up): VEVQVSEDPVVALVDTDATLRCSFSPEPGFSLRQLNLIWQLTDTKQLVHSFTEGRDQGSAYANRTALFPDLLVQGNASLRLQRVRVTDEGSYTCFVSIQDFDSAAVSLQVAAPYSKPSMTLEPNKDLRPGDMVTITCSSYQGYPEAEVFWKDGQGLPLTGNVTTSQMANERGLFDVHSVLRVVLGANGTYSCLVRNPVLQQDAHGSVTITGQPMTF
# T5: mouse B7H3-His (mouse, UniProt Q8VE98 29-244, limits assumed)
# T5 construct: also called recombinant mouse B7H3-His protein; not shown: His tag
# T5 sequence (looked up): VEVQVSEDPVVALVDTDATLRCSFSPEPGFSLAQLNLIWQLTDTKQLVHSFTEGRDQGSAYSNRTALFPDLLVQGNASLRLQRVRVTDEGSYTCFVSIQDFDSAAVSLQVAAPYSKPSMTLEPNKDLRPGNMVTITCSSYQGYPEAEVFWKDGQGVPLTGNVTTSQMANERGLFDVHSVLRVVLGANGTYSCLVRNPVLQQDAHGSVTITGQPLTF
# T6: human B7H3 (human, UniProt Q5ZPR3 29-466, limits assumed)
# T6 construct: also called human B7H3 protein
# T6 sequence (looked up): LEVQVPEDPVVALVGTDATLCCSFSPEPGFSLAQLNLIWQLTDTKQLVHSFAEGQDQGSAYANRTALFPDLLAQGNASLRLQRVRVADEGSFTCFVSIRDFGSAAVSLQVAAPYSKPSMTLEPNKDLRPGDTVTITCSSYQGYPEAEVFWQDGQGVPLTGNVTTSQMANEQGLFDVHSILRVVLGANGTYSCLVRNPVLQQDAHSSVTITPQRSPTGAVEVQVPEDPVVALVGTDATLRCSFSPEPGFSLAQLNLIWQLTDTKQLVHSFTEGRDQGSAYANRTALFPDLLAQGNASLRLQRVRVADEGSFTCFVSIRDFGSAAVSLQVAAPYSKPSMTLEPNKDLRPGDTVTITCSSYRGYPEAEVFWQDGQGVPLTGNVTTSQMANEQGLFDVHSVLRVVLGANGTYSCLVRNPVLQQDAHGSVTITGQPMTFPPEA
# Experiments:
# B7H3-hFc = target: T1, B7H3-hFc; assay: ELISA, B7H3-hFc coated, VH-His-FLAG detected with anti-FLAG-HRP
# Excerpt: FIGS. 4A-4C: Binding properties of the B7H3 binders. (FIG. 4A) SDS-PAGE analysis of the purified A1 and B1 binders (VH-His-FLAG fusion) from E. coli. Two micrograms of purified B7H3-hFc, non-reduced (Non.) or reduced (Red.) by β-mercaptoethanol, were separated on an 8% SDS-PAGE gel. Protein bands were visualized by Coomassie blue R-250 staining. (FIG. 4B) Protein binding affinity measurement by ELISA. Five micrograms of B7H3-hFc were coated on the ELISA plate, and different concentrations of domain antibodies were incubated with the plate, and binding was detected by HRP conjugated anti-FLAG mouse monoclonal antibody M2. The binding curves were plotted using the software GraphPad Prism and the calculated EC50 values were determined by the software's algorithm of hyperbola one site binding. (FIG. 4C) Cell binding determination by flow cytometry. Ten microgram per mL domain antibody was co-incubated with one million cells. Antibody binding was visualized by APC conjugated anti-FLAG monoclonal antibody. The curves labelled “1” represent cells stained with secondary antibody only; the curves labelled “2” represent cells stained with A1 or B1 domain antibody.
# The VH coding sequences of binders A1 and B1 were fused with His-FLAG tag at their C-termini and cloned into an E. coli expression vector. […] The purified yield was 2 mg/L (A1) and 10 mg/L fermentation (B1) respectively. […]
# IgG control = assay: phage ELISA
# In short: (§1)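 For 3 rounds, recombinant B7H3-Fc protein served as the panning target for camel VHH phage drawn from eight individual camels' libraries. Each entry gives the ELISA signal for binding of selected phage to an immobilised antigen, either human or other-species B7H3 or a control protein, measured by phage ELISA.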
# hB7H3-His [1] = target: T2, hB7H3-His; assay: ELISA, purified VHH
# In short: (§2)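 Binding of the purified camel VHH nanobodies is given as the ELISA signal. The immobilised recombinant proteins included B7H3 fusion proteins and proteins other than B7H3. The nanobodies were isolated beforehand by phage panning on recombinant B7H3-Fc.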
# monkey B7H3-His [2] = target: T3, monkey B7H3-His; assay: ELISA, purified VHH
# In short: as §2
# hB7H3-His [3] = target: T2, hB7H3-His; assay: ELISA, purified VHH; remark: listed apart in the source
# In short: as §2
# rat B7H3-His [4] = target: T4, rat B7H3-His; assay: ELISA, purified VHH
# In short: as §2
# Non-relevant antigen [5] = assay: ELISA, purified VHH
# In short: as §2
# monkey B7H3-His [6] = target: T3, monkey B7H3-His; assay: phage ELISA, cross-species
# In short: as §1
# rat B7H3-His [7] = target: T4, rat B7H3-His; assay: phage ELISA, cross-species
# In short: as §1
# mouse B7H3-His = target: T5, mouse B7H3-His; assay: phage ELISA, cross-species
# In short: as §1
# human B7H3 = target: T6, human B7H3; assay: phage ELISA, cross-species
# In short: as §1
# Non-relevant antigen [8] = assay: phage ELISA, cross-species
# In short: as §1
# PD-L1 = assay: ELISA, purified VHH, cross-reaction
# PD-L1, sequence (Q9NZQ7 whole entry, the tested form may be a part): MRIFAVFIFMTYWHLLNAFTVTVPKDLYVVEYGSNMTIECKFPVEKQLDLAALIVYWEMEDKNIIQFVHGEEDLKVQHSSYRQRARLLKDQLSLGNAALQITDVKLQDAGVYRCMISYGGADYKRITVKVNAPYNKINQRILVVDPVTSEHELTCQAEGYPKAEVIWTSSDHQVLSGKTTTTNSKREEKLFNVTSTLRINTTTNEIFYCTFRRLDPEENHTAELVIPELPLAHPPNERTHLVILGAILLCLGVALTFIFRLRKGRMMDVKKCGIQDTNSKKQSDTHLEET
EC50 (B7H3-hFc) [nM],ELISA signal (IgG control),binding result (hB7H3-His [1]),ELISA signal (monkey B7H3-His [2]),ELISA signal (hB7H3-His [3]),ELISA signal (rat B7H3-His [4]),ELISA signal (Non-relevant antigen [5]),ELISA signal (monkey B7H3-His [6]),ELISA signal (rat B7H3-His [7]),ELISA signal (mouse B7H3-His),ELISA signal (human B7H3),ELISA signal (Non-relevant antigen [8]),ELISA signal (PD-L1),Binder
189,,,,,,,,,,,,,"RFB1 (other, Rabbit VH single-domain antibody expressed in E. coli as VH-His-FLAG fusion; also called rabbit antibody RFB1; R1-B1; not shown: 6x His tag and FLAG tag at the C-terminus) VH: QEQLKESGGRLVTPGTPLTLTCTVSGFSPNNYGVSWVRQPPGKGLEWIGMSSTAGATYYANWAKGRFTISKTSTTVDLEITSPTTEDTATYFCAKGTPSLSYGNIWGPGTLVTVSSGGGGSGGGGSGGGGSAQGPTQTPGGGGSGTEVVVK"
,0.0777,no binding,0.0799,0.152,0.0986,0.115,0.578,0.981,1.05,2.53,0.0684,0.0522,"RWB2 (VHH, Camel VHH; tag not described; also called camel antibody RWB2) VHH: AVQLVDSGGGSVQAGGSLRLSCVVSGYAFSTYDMAWFRQAPGEKCEWVSTVTNNGRTFYADSVKGRFIISRDNAKNILYLQMNSLKPEDTAVYSCAAAGVRWRCASGGNEGTQVTVSS"
